This is an account of results in the RNAGym collection of RNA variant scans (doi:10.7554/elife.80360).

B1: Hairpin Ribozyme (parent)
chain: GUCCUCUUUCACGUGCGCGUGAAAGAGAGAAGUGAACCAGAGAAACACACGUUGUGGUAUAUUACCUGGUA

The variants in the series derive from B1. Kind of series: self-cleavage, relative activity (ratio to wild type); higher = more cleavage; co-transcriptional.
For the variant C12U A24C, the self-cleavage came out at 0.721.
In the case of C12U A44C it was 0.184; in that of G13A G29U, 0.116; in that of G13U A30G, 0.191.
As to G13A A36U, the self-cleavage is 0.491.
The value for G13A G51C was 0.68; that for U14A G25A was 0.56.
In the case of U14A G25U it was 0.521; in that of C12U A36C, 0.674.
The value for G13U A64G was 0.533; that for G13U A64U was 0.147.
In the case of G13U A64C, the self-cleavage turned out to be 0.267.
In the case of G13U A31G it was 0.499; in that of G13U A31U, 0.109.
Regarding G13C U63A, the self-cleavage is 0.173.
The value for G13A A59U was 0.241; that for G13A A59C was 0.196; that for G13C A61U was 0.161.
On to U14A G56C, for which the self-cleavage stood at 0.168.
The value for U14A G56A was 0.0617; that for U14A G56U was 0.205.
In the case of G13U G69U it was 0.246.
In the case of U14A G15A it was 1.
On to U14A G15C, for which the self-cleavage was 1.06.
In the case of U14A G15U it was 1.17; in that of G13U A49C, 0.117.
The value for G13C A43G was 0.144; that for G13C A43U was 0.0989; that for G13C A43C was 0.0516.
As to G13C A59C, the self-cleavage stood at 0.11.
With C12U A31U, the self-cleavage was 0.112.
The value for G13A C16A was 0.82; that for G13A C16U was 1.03.
As for G13A C16G, the self-cleavage came out at 0.593.
With U14A U67G, the self-cleavage is 0.277.
The value for U14A U67C was 0.247; that for U14A U67A was 0.188.
Regarding U14A C37G, the self-cleavage is 0.295.
The value for U14A C37U was 0.481; that for U14A U70A was 0.863.
For C12G G17C, the self-cleavage was determined as 0.842.
As to U14A A41C, the self-cleavage is 1.34.
Turning to U14A A41U, the self-cleavage was determined as 1.04.
U14A A22C: the self-cleavage was found to be 0.829.
C12G G69C: the self-cleavage turned out to be 0.355.
As for G13A G21U, the self-cleavage amounted to 0.742.
As to G13A U52A, the self-cleavage was found to be 1.01.
For the variant G13A U52C, the self-cleavage was 0.625.
As to G13A U52G, the self-cleavage was 0.5.
G13U G15A: the self-cleavage is 0.491.
The value for G13U G15C was 0.608.
The value for G13A U60C was 1.25; that for G13A G25A was 0.484; that for C12G C38A was 0.148.
As for C12G C38G, the self-cleavage came to 0.142.
On to G13A U58G, for which the self-cleavage is 0.594.
On to G13A U58A, for which the self-cleavage worked out at 0.574.
Take C12G G29A: the self-cleavage is 0.138.
The value for G13A C18G was 0.761; that for G13A C18U was 1.1.
For G13U G32C, the self-cleavage was determined as 0.232.
The value for C12U G27U was 0.199; that for C12U G17U was 0.69; that for U14A A64G was 0.589.
Take U14A A64U: the self-cleavage was determined as 0.171.
In the case of U14A A64C it was 0.254.
The value for U14A U62A was 0.0586.
The value for G13U G17C was 0.494; that for G13C C16U was 0.573; that for G13C U33G was 0.207.
On to G13C U33A, for which the self-cleavage was found to be 0.0736.
With G13C A36G, the self-cleavage came to 0.816.
The value for G13C A36U was 0.4.
In the case of C12G U67A it was 0.202; in that of C12G U67G, 0.215.
Regarding G13U A71C, the self-cleavage is 1.22.
For the variant G13U A71G, the self-cleavage amounted to 0.936.
On to U14A A28G, for which the self-cleavage came to 1.2.
In the case of G13C G19U it was 0.752.
The value for G13U G29U was 0.147; that for C12G G27C was 0.226; that for G13A G57C was 0.164.
In the case of G13A G57A it was 0.175.
Regarding U14A C46G, the self-cleavage amounted to 0.108.
U14A C46A: the self-cleavage was 0.232.
The value for G13C G51C was 0.681; that for C12U A28C was 0.437; that for C12U A28U was 0.583.
Turning to C12U A28G, the self-cleavage amounted to 1.19.
Turning to C12G U58C, the self-cleavage amounted to 0.762.
On to C12G U58G, for which the self-cleavage was 0.502.
In the case of G13U A35U it was 0.83; in that of U14A A39U, 0.408; in that of U14A A39C, 0.515.
In the case of G13C G42A it was 0.208; in that of G13C C48G, 0.102; in that of U14A C38G, 0.0908.
For C12G G25A, the self-cleavage was 0.524.
With G13A U55A, the self-cleavage is 0.333.
With G13A C65A, the self-cleavage amounted to 0.743.
In the case of G13C A30G, the self-cleavage was found to be 0.114.
Take G13C G21A: the self-cleavage is 0.61.
Take G13U A39C: the self-cleavage was 0.498.
In the case of G13U A39U it was 0.257.
For the variant G13U C66A, the self-cleavage was found to be 0.176.
The value for G13U C66G was 0.11.
G13U U33G: the self-cleavage came to 0.0972.
Consider G13U U33C, for which the self-cleavage is 0.102.
In the case of G13C G27U it was 0.19; in that of G13A G69U, 0.24.
Consider G13A G69A, for which the self-cleavage was determined as 0.368.
As for G13U G19C, the self-cleavage worked out at 0.686.
With U14C A64G, the self-cleavage was determined as 0.568.
Consider U14C A61U, for which the self-cleavage is 0.293.
The value for C12G G40C was 0.117; that for C12G G40U was 0.113.
In the case of C12G G56C, the self-cleavage was found to be 0.154.
The value for G13C G69C was 0.199.
In the case of G13C G69A it was 0.214.
For C12G U60A, the self-cleavage stood at 0.748.
Take C12G G42A: the self-cleavage was determined as 0.276.
On to G13C A22U, for which the self-cleavage stood at 0.528.
The value for G13C C50G was 0.278; that for C12U U20C was 0.894; that for C12U U20A was 0.695.
Take C12U G25A: the self-cleavage is 0.482.
G13U U53C: the self-cleavage was 0.477.
The value for U14A A26U was 0.503.
As to U14A A47U, the self-cleavage turned out to be 0.143.
Regarding U14A A47C, the self-cleavage came to 0.482.
In the case of C12U G54A it was 0.587.
For C12G G21A, the self-cleavage was determined as 0.683.
As to G13C C66G, the self-cleavage was 0.129.
In the case of G13C C66U it was 0.431; in that of G13C C66A, 0.0627.
With G13C U58C, the self-cleavage came to 0.869.
The value for G13C U58A was 0.35; that for G13C G29A was 0.106; that for G13U C18A was 0.915.
The value for G13U C18U was 0.967; that for U14A A23C was 0.789; that for U14A A23G was 0.814.
In the case of U14A G54U it was 0.471; in that of U14A G54A, 0.581; in that of C12U A30G, 0.173.
As to G13A U63A, the self-cleavage came out at 0.194.
Take G13A A43G: the self-cleavage is 0.0659.
The value for C12U G69C was 0.367.
In the case of C12U G69A it was 0.406; in that of C12U G69U, 0.153.
In the case of G13A A31C it was 0.11.
In the case of G13A A31G, the self-cleavage was determined as 0.515.
In the case of C12G A71G it was 0.803; in that of G13C G68C, 0.151; in that of G13C G68A, 0.219.
The value for C12U G68U was 0.27; that for C12U G68A was 0.259.
In the case of U14A A24C it was 0.703; in that of C12U C50A, 0.314; in that of C12U C50U, 0.431.
Turning to G13A A28U, the self-cleavage was found to be 0.495.
As to G13A A28C, the self-cleavage came to 0.258.
In the case of C12G C37U, the self-cleavage was 0.445.
As for G13C A64C, the self-cleavage came out at 0.149.
The value for G13A G40C was 0.152; that for G13C A39G was 0.186; that for G13C A39C was 0.59.
